Source: article PMC8496864

Legend:
[1] = target: CwlDΔ25-His6 (soluble domain of C. difficile CwlD amidase, His-tagged) (Clostridioides difficile); experiment: SEC; Superdex 200 Increase 10/300 GL; 200 mM NaCl, 10 mM Tris HCl pH 7.5, 5% glycerol, 1 mM DTT; fractions on SDS-PAGE with Coomassie; complexes also run after 1 h at 4°C with fivefold excess ZnCl2 or 1 mM EDTA
[2] = target: FLAG-tagged CwlD_(E199A) (Clostridioides difficile); experiment: co-IP; lysates of C. difficile sporulating for 22 h; FLAG IP buffer (50 mM Tris pH 7.5, 150 mM NaCl) with 0.1% NP-40; anti-FLAG magnetic resin, 1 h at room temperature; eluted with FLAG peptide; GerS detected by anti-GerS blot
[3] = target: FLAG-tagged CwlD_(H49A) (Clostridioides difficile); experiment: as above
[4] = target: FLAG-tagged CwlD_(R169D) (Clostridioides difficile); experiment: as above
[5] = target: CwlDΔ25-His6 (soluble domain of C. difficile CwlD amidase, His-tagged) (Clostridioides difficile); experiment: pull-down; co-affinity purification: His-tagged CwlD and untagged GerS co-produced in E. coli, captured on Ni-NTA agarose (500 mM NaCl, Tris pH 7.5, 15 mM imidazole, 10% glycerol, 2 mM ß-mercaptoethanol), eluted with 200 mM imidazole, Coomassie staining
[6] = target: GerSΔ22 (soluble domain of C. difficile GerS lipoprotein, untagged) (Clostridioides difficile); experiment: crystal structure; SEC-purified CwlD:GerS complex; hanging drop at 18°C, 50 mM BisTris pH 7.5, PEG 3350 12–18%, 5% glycerol, 0.25 M ammonium nitrate; 2.4 Å
[7] = target: CwlD_(E199A)-His6 (Clostridioides difficile); experiment: SEC; Superdex 200 Increase 10/300 GL; 200 mM NaCl, 10 mM Tris HCl pH 7.5, 5% glycerol, 1 mM DTT; fractions on SDS-PAGE with Coomassie; complexes also run after 1 h at 4°C with fivefold excess ZnCl2 or 1 mM EDTA
[8] = target: CwlD_(E65A)-His6 (Clostridioides difficile); experiment: as above
[9] = target: CwlD_(H49A)-His6 (Clostridioides difficile); experiment: as above
[10] = target: CwlD_(R169D)-His6 (Clostridioides difficile); experiment: pull-down; co-affinity purification: His-tagged CwlD and untagged GerS co-produced in E. coli, captured on Ni-NTA agarose (500 mM NaCl, Tris pH 7.5, 15 mM imidazole, 10% glycerol, 2 mM ß-mercaptoethanol), eluted with 200 mM imidazole, Coomassie staining
[11] = target: CwlD_(R169Q)-His6 (Clostridioides difficile); experiment: as above
[12] = target: GerSΔ22-His6 (Clostridioides difficile); experiment: dynamic light scattering; DynaPro Protein Solutions DLS instrument; purified GerS, CwlD and SEC-purified CwlD:GerS complex
[13] = target: GerSΔ22-His6 (Clostridioides difficile); experiment: SEC; Superdex 200 Increase 10/300 GL; 200 mM NaCl, 10 mM Tris HCl pH 7.5, 5% glycerol, 1 mM DTT; fractions on SDS-PAGE with Coomassie; complexes also run after 1 h at 4°C with fivefold excess ZnCl2 or 1 mM EDTA

Question: Which stoichiometry N [1] does the source give for “CwlDΔ25-His6 (soluble domain of C. difficile CwlD amidase, His-tagged) (domain or fragment)” here?
Answer: The stoichiometry N was 2.

Question: Which results are given for “GerS, cleaved form (GerS-c), untagged, in sporulating C. difficile (natural protein)”?
Answer: decrease of GerS pulled down relative to wild-type FLAG-tagged CwlD [2]: 40%; fold reduction of GerS pulled down relative to wild-type FLAG-tagged CwlD [3]: 5 fold; fold reduction of GerS pulled down relative to wild-type FLAG-tagged CwlD [4]: 5 fold

Question: How did the reduction of GerS co-purification relative to the wild-type complex [5] turn out when “GerS_(D106A), untagged (domain or fragment)” was run?
Answer: Its reduction of GerS co-purification relative to the wild-type complex is 90%.

Question: Which reduction of GerS co-purification relative to the wild-type complex [5] does the source give for “GerS_(D106R), untagged (domain or fragment)” here?
Answer: The reduction of GerS co-purification relative to the wild-type complex was 90%.

Question: With “GerSΔ22 (soluble domain of C. difficile GerS lipoprotein, untagged) (domain or fragment)” as the substance, how does the stoichiometry N [6] read?
Answer: Its stoichiometry N is 2.

Question: What about the stoichiometry N [7] of the same substance?
Answer: Its stoichiometry N is 1.

Question: And the stoichiometry N [8]?
Answer: Its stoichiometry N is 1.

Question: And the stoichiometry N [9]?
Answer: The stoichiometry N was 1.

Question: And the stoichiometry N [1]?
Answer: Its stoichiometry N is 1.

Question: What about the reduction of GerS co-purification relative to the wild-type complex [10] of the same substance?
Answer: Its reduction of GerS co-purification relative to the wild-type complex is 90%.

Question: And the reduction of GerS co-purification relative to the wild-type complex [11]?
Answer: Its reduction of GerS co-purification relative to the wild-type complex is 90%.

Question: What does the source list for GerSΔ22-His6 (domain or fragment)?
Answer: stoichiometry N [12]: 2; stoichiometry N [13]: 2
